Experiments:
[1] = substrate: NP of A/Wisconsin/67/2005(H3N2/H3W) (influenza A virus A/Wisconsin/67/2005 (H3N2)); experiment: sandwich ELISA, capture IgG; NP of lysed virus titrated; HRP-NP17 detection
[2] = substrate: NP of A/Wisconsin/67/2005(H3N2/H3W) (influenza A virus A/Wisconsin/67/2005 (H3N2)); experiment: sandwich ELISA, capture IgG; NP of lysed virus titrated; HRP-NP16 detection
[3] = substrate: NP of A/Wisconsin/67/2005(H3N2/H3W) (influenza A virus A/Wisconsin/67/2005 (H3N2)); experiment: ELISA on virus-infected fixed MDCK cells

Chain of NP of A/Wisconsin/67/2005(H3N2/H3W) (influenza A virus A/Wisconsin/67/2005 (H3N2)) (P03466 whole entry): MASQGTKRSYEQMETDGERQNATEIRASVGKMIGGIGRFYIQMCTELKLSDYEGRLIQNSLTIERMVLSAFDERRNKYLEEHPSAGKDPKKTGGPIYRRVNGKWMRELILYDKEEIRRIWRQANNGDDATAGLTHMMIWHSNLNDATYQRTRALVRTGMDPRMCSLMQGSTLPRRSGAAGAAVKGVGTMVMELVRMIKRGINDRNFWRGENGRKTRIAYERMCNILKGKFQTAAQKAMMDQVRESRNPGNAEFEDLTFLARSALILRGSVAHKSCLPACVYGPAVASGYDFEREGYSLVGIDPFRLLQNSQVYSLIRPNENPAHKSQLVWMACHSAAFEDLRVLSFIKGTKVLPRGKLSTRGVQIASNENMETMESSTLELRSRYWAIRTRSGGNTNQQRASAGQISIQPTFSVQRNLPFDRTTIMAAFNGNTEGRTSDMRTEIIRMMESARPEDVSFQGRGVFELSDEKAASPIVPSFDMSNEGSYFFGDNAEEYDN

B1: NP22 (antibody, V domains shown)
VH: EVQLVESGGGLVQPGGSLRLSCAASGFTISDWSIHWVRQAPGKGLEWVAGIWPYWGSTSYADSVKGRFTISADTSKNTAYLQMNSLRAEDTAVYYCARGFYSWFDYWGQGTLVTVSS
VL: DIQMTQSPSSLSASVGDRVTITCRASQDVFSWVAWYQQKPGKAPKLLISSASSLYSGVPSRFSGSGSGTDFTLTISSLQPEDFATYYCQQSWDYPITFGQGTKVEIKR
[1]
  EC50: 82.8 nM
[2]
  EC50: 91.4 nM

B2: NP5 (antibody, V domains shown)
VH: EVQLVESGGGLVQPGGSLRLSCAASGFTISNGSIHWVRQAPGKGLEWVAGIWPSGGSTSYADSVKGRFTISADTINNSAYLQMNSLRAEDTAVYYCARWNYWGQGTLVTVSS
VL: DIQMTQSPSSLSASVGDRVTITCRASQDVGWSVAWYQQKPGKAPKLLIYGSRWLYSGVPSRFSGSGSGTDFTLTISSLQPEDFATYYCQQGYNGPLTFGQGTKVEIKR
[1]
  EC50: 0.879 nM
[2]
  EC50: 3.13 nM

B3: NP6 (antibody, V domains shown)
VH: EVQLVESGGGLVQPGGSLRLSCAASGFTINDGSIHWVRQAPGKGLEWVAGIGPFGGFTYYADSVKGRFTISADTSKNTAYLQMNSLRAEDTAVYYCARSGYSGSFDYWGQGTLVTVSS
VL: DIQMTQSPSSLSASVGDRVTITCRASQDVYFGVAWYQQKPGKAPKLLIYGTSYLYSGVPSRFSGSGSGTDFTLTISSLQPEDFATYYCQQFSNWPITFGQGTKVEIKR
[1]
  EC50: 1.98 nM
[2]
  EC50: 2.7 nM

B4: NP18 (antibody, V domains shown)
VH: EVQLVESGGGLVQPGGSLRLSCAASGFTISGGGIHWVRQAPGKGLEWVASIWPSWGSTSYADSVKGRFTISADTSKNTAYLQMNSLRAEDTAVYYCARFHNGGFLVMDYWGQGTLVTVSS
VL: DIQMTQSSSSLSASVGDRVTITCRASQDVGYYVAWYQQKPGKAPKLLIYGPRFLYSGVPSRFSGSGSGTDFTLTISSLQPEDFATYYCQQYSNWPITFGQGTKVEIKR
[1]
  EC50: 1000 nM
[3]
  EC50: 0.192 nM

B5: NP19 (antibody, V domains shown)
VH: EVQLVESGGGLVQPGGSLRLSCAASGFTISSWGIHWVRQAPGKGLEWVAGIGPFWGYTSYADSVKGRFTISADTSKNTAYLQMNSLRAEDTAVYYCARFGVDNYGYMDYWGQGTLVTVSS
VL: DIQMTQSPSSLSASVGDRVTITCRASQDVSGWVAWYQQKPGKAPKLLISWSTGLYSGVPSRFSGSGSGTDFTLTISSLQPEDFATYYCQQYFNFPVTFGQGTKVEIKR
[1]
  EC50: 0.765 nM
[3]
  EC50: 0.215 nM
[2]
  EC50: 3.88 nM

B6: NP15 (antibody, V domains shown)
VH: EVQLVESGGGLVQPGGSLRLSCAASGFTISNWYIHWVRQAPGKGLEWVAGIGPYGGSTYYADSVKGRFTISADTSKNTAYLQMNSLRAEDTAVYYCARFHWDHLHGMDYWGQGTLVTVSS
VL: DIQMTQSPSSLSASVGDRVTITCRASQDVDNNVAWYQQKPGKAPKLLISYSTGLYSGVPSRFSGSGSGTDFTLTISSLQPEDFATYYCQQYWNYPITFGQGTKVEIKR
[1]
  EC50: 0.779 nM
[3]
  EC50: 0.449 nM
[2]
  EC50: 2.52 nM

B7: NP17 (antibody, V domains shown)
VH: EVQLVESGGGLVQPGGSLRLSCAASGFTISGGSIHWVRQAPGKGLEWVASIWPFGGSTFYADSVKGRFTISADTSKNTAYLQMNSLRAEDTAVYYCARFGHGHNVIMDYWGQGTLVTVSS
VL: DIQMTQSPSSLSASVGDRVTITCRASQDVGYSVAWYQQKPGKAPKLLISSPGGLYSGVPSRFSGSGSGTDFTLTISSLQPEDFATYYCQQYYDYPVTFGQGTKVEIKR
[1]
  EC50: 1.07 nM
[2]
  EC50: 3.09 nM

B8: NP21 (antibody, V domains shown)
VH: EVQLVESGGGLVQPGGSLRLSCAASGFTINGYGIHWVRQAPGKGLEWVAGIWPYGGSTFYADSVKGRFTISADTSKNTAYLQMNSLRAEDTAVYYCARFYNNHGGIMDYWGQGTLVTVSS
VL: DIQMTQSPSSLSASVGDRVTITCRASQDVYFYVAWYQQKPGKAPKLLIYGSRWLYSGVPSRFSGSGSGTDFTLTISSLQPEDFATYYCQQYSNFPVTFGQGTKVEIKR
[1]
  EC50: 0.848 nM
[2]
  EC50: 2.88 nM

B9: NP7 (antibody, V domains shown)
VH: EVQLVESGGGLVQPGGSLRLSCAASGFTISNGGIHWVRQAPGKGLEWVAGIGPYGGFTSYADSVKGRFTISADTSKNTAYLQMNSLRAEDTAVYYCARFYSNYYGYHGVMDYWGQGTLVTVSS
VL: DIQMTQSPSSLSASVGDRVTITCRASQDVFGWVAWYQQKPGKAPKLLISYSASLYSGVPSRFSGSGSGTDFTLTISSLQPEDFATYYCQQYFNYPLTFGQGTKVEIKR
[1]
  EC50: 0.821 nM
[2]
  EC50: 2.26 nM

B10: NP3 (antibody, V domains shown)
VH: EVQLVESGGGLVQPGGSLRLSCAASGFTISNYGIHWVRQAPGKGLEWVAGIWPFGGFTSYADSVKGRFTISADTSKNTAYLQMNSLRAEDTAVYYCARFHWNDHGYMDYWGQGTLVTVSS
VL: DIQMTQSPSSLSASVGDRVTITCRASQDVGWYVAWYQQKPGKAPKLLIYSTTGLYSGVPSRFSGSGSGTDFTLTISSLQPEDFATYYCQQYYNYPITFGQGTKVEIKR
[1]
  EC50: 0.828 nM
[3]
  EC50: 0.25 nM
[2]
  EC50: 1.81 nM

B11: NP16 (antibody, V domains shown)
VH: EVQLVESGGGLVQPGGSLRLSCAASGFTIGNSGIHWVRQAPGKGLEWVAWIGPYWGFTSYADSVKGRFTISADTSKNTAYLQMNSLRAEDTAVYYCARFGNHWHLFMDYWGQGTLVTVSS
VL: DIQMTQSPSSLSASVGDRVTITCRASQDVGSYVAWYQQKPGKAPKLLISWTTGLYSGVPSRFSGSGSGTDFTLTISSLQPEDFATYYCQQYFSYPVTFGQGTKVEIKR
[1]
  EC50: 0.891 nM
[3]
  EC50: 0.248 nM
[2]
  EC50: 4.1 nM

Source: patent publication US20230212554A1
